The record followed here is the supplement of paper PMC9170038.

The series has as its system MS2 coat protein. Nature of the series: apparent KD of MS2 coat protein; designed switch direction (-1 OFF switch, 1 ON switch): -1; higher = weaker reporter binding. Put shortly:
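Normalised cluster fluorescence was curve-fitted, and each design's median over clusters is its apparent KD. Before this, SNAP-549-labelled MS2 coat protein was titrated from 0.7 or 1.5 nM, doubling to 3 µM, over RNA switches transcribed on Illumina chips by stalled E. coli RNA polymerase. Titrations had no input, 200 uM small-molecule ligand, or an oligonucleotide input, and steps lasted 0.8–1.5 h (lowest) to 10–20 min (highest).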

Where [1] appears, read: Eterna round: R95, input ligand: FMN 200 uM.
[2] abbreviates: Eterna round: R95, input ligand: microRNA oligo, concentration not stated.
Setting [3] is: Eterna round: R95, input ligand: none.
[4] abbreviates: input ligand: microRNA oligo, concentration not stated.

On to “GGUUUACAAGGAUAUACAAAGGUCUUGUGAUCUGUGCGAGGACAUGAGGAUCACCCAUGUAGAAGGUGUCUGCU [Eternabot (L2) Solution 77] (Eterna round: R97, puzzle: Exclusion 2)”, for which the “apparent KD of MS2 coat protein” value stood at 193 nM (input ligand: FMN 200 uM) and 114 nM (input ligand: none).

With “GGUUUUCUUUUCCUUUCUUACAUGAGGAUCACCCAUGUUUCUUGUCGUGCUCGCGUUGCUCGUCUGUCUGUCUGUUG [salish99_TOv1_r3_076(!)] (puzzle: Sensor v3, turn-off variant 1)”, the “apparent KD of MS2 coat protein” value under setting [1] was 45.9 nM, the “apparent KD of MS2 coat protein” value under setting [2] is 35.7 nM and the “apparent KD of MS2 coat protein” value under setting [3] amounted to 56.9 nM.

On to “GUAAAACAUGUAGGAUAUGCGUGGCGAAGCUAUGCAGAAGGACAUGAGGAUCACCCAUGUUAAAGCGUCUGCGUACAGAUGCAA [Mat - Exclusion NG 1 - Mod of JL - D94] (Eterna round: R96, puzzle: Exclusion NG 1)”, for which the “apparent KD of MS2 coat protein” value turned out to be 279 nM (input ligand: FMN 200 uM), 19.8 nM under setting [4] and 29.2 nM (input ligand: none).

Consider “GUAAAGUGAGGAUAUGGUAAUUUAAUUAUUAAUUAAUUAAUCCAGAAGGCACAUGAGGAUCACCCAUGUAAAUG [Mat - Exclusion 4 - D90] (puzzle: Exclusion 4)”, for which, under setting [2], the “apparent KD of MS2 coat protein” value came to 31.6 nM.

As to “GUAACAACUAGAGGAUAUCAGCACGUGUUGUGCUGAGAAGGCUAGAGUUACAUGAGGAUCACCCAUGUCUAGAGAUCAUUAAUU [ENG1/13-A4] (Eterna round: R96, puzzle: Exclusion NG 1)”, the “apparent KD of MS2 coat protein” value (input ligand: FMN 200 uM) turned out to be 120 nM, the “apparent KD of MS2 coat protein” value under setting [4] is 29.5 nM and the “apparent KD of MS2 coat protein” value (input ligand: none) was determined as 49.1 nM.

Turning to “GUAACAACUAGAGGAUAUCAGCACGUUUAGUGCUGAGAAGGCUAGAGUUACAUGAGGAUCACCCAUGUCUAGAGAUCAUUAAUU [ENG1/13-A2] (Eterna round: R96, puzzle: Exclusion NG 1)”, the “apparent KD of MS2 coat protein” value was 177 nM (input ligand: FMN 200 uM), 66.3 nM under setting [4] and 83.8 nM (input ligand: none).

Turning to “GUAAUGCUGCGAGGAUAUACAUGAGGAUCACCCAUGUGGAUGUCUGAGGCAAAGCCUCAGACGAUGUAGAAGGCGCAGUAAAAU [Mat - Exclusion NG 2 - Mod of JL - D54] (Eterna round: R96, puzzle: Exclusion NG 2)”, the “apparent KD of MS2 coat protein” value reads like this: (input ligand: FMN 200 uM) 85.7 nM; under setting [4], 17.6 nM; (input ligand: none) 44.4 nM.

Regarding “GUACAACAUGAGGAUCACCCAUGUGAGGAUAUGCGAAUUUCAUCAAAAGAUGAAAUUUGCAGAAGGCACUGUAC [Omei Ex1 A10] (Eterna round: R97, puzzle: Exclusion 1)”, the “apparent KD of MS2 coat protein” value amounted to 19.2 nM (input ligand: FMN 200 uM) and 20.8 nM (input ligand: none).

Consider “GUACUAAAGCUUUGCUUUAGUCGUACAUGAGGAUCACCCAUGUAGGAUAUGGUAAGCAUAGCUUACUAGAAGGAUAGAGUGAUC [Mat - Exclusion NG 3 - Mod of JL - D66] (Eterna round: R96, puzzle: Exclusion NG 3)”, for which the “apparent KD of MS2 coat protein” value runs as follows: (input ligand: FMN 200 uM) 285 nM; under setting [4], 146 nM; (input ligand: none) 145 nM.

As to “GUACUGAAGCUUUGCUUUAGUCGUACAUGAGGAUCACCCAUGUAGGAUAUGGUAGGCUUUGCUUACCAGAAGGACAGAGUGAUC [JL EXNG3 1.25] (Eterna round: R96, puzzle: Exclusion NG 3)”, the “apparent KD of MS2 coat protein” value reads like this: (input ligand: FMN 200 uM) 68.6 nM; under setting [4], 83.7 nM; (input ligand: none) 85.3 nM.

Turning to “GUACUGACAGGAUAUACAUGAGGAUCACCCAUGUGCCUUAGCGCUACAAAAGUAGCGUGUAGAAGGGUCUGUAC [Omei Ex3 Model Bachelor's Dilema v15] (Eterna round: R97, puzzle: Exclusion 3)”, the “apparent KD of MS2 coat protein” value reads like this: (input ligand: FMN 200 uM) 36.8 nM; (input ligand: none) 15.4 nM.

In the case of “GUAGAGUCAGGAUAUACAAAUAGAUCGAAAGAUCAAUCCAUACAUGAGGAUCACCCAUGUAGAAGGGACUCUAC [Eli x2 4.15] (Eterna round: R97, puzzle: Exclusion 2)”, the “apparent KD of MS2 coat protein” value is, setting by setting: (input ligand: FMN 200 uM) 20.5 nM; (input ligand: none) 16.7 nM.

In the case of “GUAGAGUCAGGAUAUACGAGAUCGAAAGAUCUUUGAUCCUAACAUGAGGAUCACCCAUGUAGAAGGGACUCUAC [Omei mod 3 to Eli's favorate candidate (ch.parushev)] (Eterna round: R97, puzzle: Exclusion 2)”, the “apparent KD of MS2 coat protein” value reads like this: (input ligand: FMN 200 uM) 698 nM; (input ligand: none) 58 nM.

In the case of “GUAGAUCGAGUUAGGAUAUGAUUAAAAUUCGGAUAUCAGAAGGAACUUGAGGAUCACCCAAGUAUAGAUGAUUC [JR_BMEx4_Sub057] (Eterna round: R97, puzzle: Brourd's mod of Exclusion 4)”, the “apparent KD of MS2 coat protein” value runs as follows: (input ligand: FMN 200 uM) 135 nM; (input ligand: none) 29.8 nM.

“GUAGCUCUCGAGGAUAUGGAUAGAAAAGUUAGUCCAGAAGGCGAGACAUGAGGAUCACCCAUGUUGGACUCUGC [Eternabot (L2) Solution 77] (Eterna round: R97, puzzle: Exclusion 6)”: the “apparent KD of MS2 coat protein” value (input ligand: FMN 200 uM) was 118 nM and the “apparent KD of MS2 coat protein” value (input ligand: none) turned out to be 60.4 nM.

As for “GUAUCCGAGAAGGAUAUCAAUGGCCCGGACCACUGAGAAGGUCUCACAUGAGGAUCACCCAUGUCACAGGUGCA [Eternabot (Original) Solution 29] (Eterna round: R97, puzzle: Exclusion 6)”, the “apparent KD of MS2 coat protein” value stood at 74.1 nM (input ligand: FMN 200 uM) and 70.3 nM (input ligand: none).

Turning to “GUAUCGUGAGGAUAUCAUGAUUGACUUUUAUUUUGUCAGCGUGAGAAGGCACAUGAGGAUCACCCAUGUGAUUA [Ex4 - 3 - 8] (puzzle: Exclusion 4)”, under setting [2], the “apparent KD of MS2 coat protein” value came out at 23.2 nM.

With “GUAUGUUAUGAGGAUAUCGGUGAACAUACACAUCGAGAAGGCAUGACAUGAGGAUCACCCAUGUCAAGGAUGUA [Exclusion 6 - B - 18:b] (puzzle: Exclusion 6)”, the “apparent KD of MS2 coat protein” value is, setting by setting: under setting [1], 25.5 nM; under setting [2], 15.3 nM; under setting [3], 20.8 nM.

In the case of “GUCACAUGGGUGUAGAAUCACAUGAGGAUCACCCAUGUGACUAACAAGCUUUUUGCUCGUCUUAUGUCUAUGUGAAA [Stov1/17-A1] (Eterna round: R97, puzzle: Sensor, turn-off variant 1)”, the “apparent KD of MS2 coat protein” value reads like this: (input ligand: FMN 200 uM) 47.4 nM; (input ligand: none) 40.5 nM.

In the case of “GUCAGACGAGGAUAUAGAUUUAGAUACAUGAGGAUCACCCAUGUAUAGAUGUAUUUAGAUUUAGAAGGCGUCUGAC [E5/13-A3] (Eterna round: R97, puzzle: Exclusion 5)”, the “apparent KD of MS2 coat protein” value worked out at 231 nM (input ligand: FMN 200 uM) and 201 nM (input ligand: none).

“GUCAGCUCGUCAGGAUAUAUAUACAUGAGGAUCACCCAUGUAAGAUCAGGCUUCGGCCAAUGUAUAUAGAAGGGACGAGCUGAC [ENG2/11-B1] (Eterna round: R96, puzzle: Exclusion NG 2)”: the “apparent KD of MS2 coat protein” value was 500 nM (input ligand: FMN 200 uM), 691 nM under setting [4] and 716 nM (input ligand: none).

Regarding “GUCAGCUCGUGAGGAUAUACAUCACUGCUUCGGCAGUGUAUUAAGAUCACAUGAGGAUCACCCAUGUAGAAGGUACGAGCUGAC [ENG2/2-C1] (Eterna round: R96, puzzle: Exclusion NG 2)”, the “apparent KD of MS2 coat protein” value runs as follows: (input ligand: FMN 200 uM) 180 nM; under setting [4], 21.5 nM; (input ligand: none) 22.1 nM.

Consider “GUCAGCUCGUGAGGAUAUACAUGAGGAUCACCCAUGUGGUCAAUAGCAGCUUCGGCUGCAUACAUGUAGAAGGCACGAGCUGAC [ENG2/7-A1] (Eterna round: R96, puzzle: Exclusion NG 2)”, for which the “apparent KD of MS2 coat protein” value (input ligand: FMN 200 uM) turned out to be 59.7 nM, the “apparent KD of MS2 coat protein” value under setting [4] came to 9.59 nM and the “apparent KD of MS2 coat protein” value (input ligand: none) worked out at 30.7 nM.

On to “GUCAGCUCGUGAGGAUAUACAUGAUAGAUCGAUUAAUUAAUUAAUUUAACAUGAGGAUCACCCAUGUAGAAGGUACGAGCUGAU [ENG2/1-C2] (Eterna round: R96, puzzle: Exclusion NG 2)”, for which, under setting [4], the “apparent KD of MS2 coat protein” value is 40.1 nM.

As to “GUCAGCUCGUGAGGAUAUACAUGCGUGCUUCGGCACGAAUUUAAGAUCACAUGAGGAUCACCCAUGUAGAAGGCACGAGCUGAU [ENG2/3-A2] (Eterna round: R96, puzzle: Exclusion NG 2)”, the “apparent KD of MS2 coat protein” value is, setting by setting: (input ligand: FMN 200 uM) 366 nM; under setting [4], 896 nM; (input ligand: none) 797 nM.

Consider “GUCAGCUCGUGAGGAUAUAUAUACAUGAGGAUCACCCAUGUAAGAUCAGGCUUCGGCCAAUGUAUAUAGAAGGCACGAGCUGAC [ENG2/11-A1] (Eterna round: R96, puzzle: Exclusion NG 2)”, for which the “apparent KD of MS2 coat protein” value is, setting by setting: (input ligand: FMN 200 uM) 1350 nM; under setting [4], 1510 nM; (input ligand: none) 636 nM.

Take “GUCAGCUCGUGAGGAUAUGAACAUGAGGAUCACCCAUGUAAGAUCAAGCUGCUUCGGCAGCAAGUUCAGAAGGCACGAGCUGAU [ENG2/10-A2] (Eterna round: R96, puzzle: Exclusion NG 2)”: the “apparent KD of MS2 coat protein” value is, setting by setting: (input ligand: FMN 200 uM) 251 nM; under setting [4], 134 nM; (input ligand: none) 172 nM.

“GUCAUACAUGAGGAUCACCCAUGUAAGGAUAUGCUAGCGGUCGGAAGAAUGACUGCUAGCAGAAGGUACAUGAU [Mat - Mod of JL D83] (puzzle: Exclusion 1)”: under setting [2], the “apparent KD of MS2 coat protein” value came out at 62.5 nM.

Consider “GUCAUCAAACAUGGGAUCAACAUGAGGAUCACCCAUGUUGUCAAGUUUUUUGCUCGUCUUAUAAUACGUUUGAUGAC [Mod-Jxb] (Eterna round: R97, puzzle: Sensor, turn-off variant 1)”, for which the “apparent KD of MS2 coat protein” value (input ligand: FMN 200 uM) came to 16 nM and the “apparent KD of MS2 coat protein” value (input ligand: none) turned out to be 16.4 nM.

“GUCAUCACACAUGGGAUCAACAUGAGGAUCACCCAUGUUGCCAAGUUGUUUGCACGUCUUAUCAUACGUUUUUCGAG [Mod-Jxh] (Eterna round: R97, puzzle: Sensor, turn-off variant 1)”: the “apparent KD of MS2 coat protein” value (input ligand: FMN 200 uM) was found to be 22.9 nM and the “apparent KD of MS2 coat protein” value (input ligand: none) turned out to be 23.2 nM.
